Here are results for 167 variants from the Human Domainome abundance scans (Beltran et al. 2025).

B1: Calcium-binding protein 2, residues 155 to 219; numbered along this chain, Q9NPB3 (parent)
chain: RELRDAFREFDTNGDGRISVGELRAALKALLGERLSQREVDEILQDVDLNGDGLVDFEEFVRMMS

± gives the uncertainty stated by the source.

Variants of B1 are the subject of this series. Kind of series: abundance fitness (aPCA) (normalised: wild type 0, dead -1); higher = more abundant; growth selection in yeast, the domain comes from the species named. As to conditions: Homo sapiens.
As for A29E, the abundance fitness was -0.096 ± 0.29.
Then A29G, with -0.135 ± 0.053; and A29F, with -0.208 ± 0.12.
The result for A29D reads 0.063 ± 0.18; that for A29Q, -0.04 ± 0.11; that for A29H, -0.149 ± 0.33.
For the variant A29I, the abundance fitness is -0.204 ± 0.21.
Then A25F, with -0.093 ± 0.25.
The result for A25S reads 0.084 ± 0.096.
As to A25P, the abundance fitness was -0.022 ± 0.11.
Then A25Y, with -0.159 ± 0.16; and A25M, with 0.019 ± 0.11; and A25D, with 0.045 ± 0.082.
The result for A25R reads 0.051 ± 0.054; that for G53E, -0.199 ± 0.086.
Then G53R, with -0.397 ± 0.057; and G53D, with -0.088 ± 0.062; and G53T, with -0.107 ± 0.11.
For the variant E9H, the abundance fitness was -0.429 ± 0.37.
The result for E9D reads 0.003 ± 0.12; that for E9V, -0.03 ± 0.083; that for E9L, -0.201 ± 0.051.
Consider E9T, for which the abundance fitness stood at 0.039 ± 0.074.
Then E9P, with -0.451 ± 0.058.
For V40K, the abundance fitness is -0.04 ± 0.082.
Then V40R, with 0.108 ± 0.045.
Regarding V40H, the abundance fitness turned out to be 0.038 ± 0.095.
For the variant V40E, the abundance fitness came to 0.169 ± 0.07.
Consider V40F, for which the abundance fitness was -0.086 ± 0.24.
Then V40I, with 0.047 ± 0.19; and V40D, with 0.043 ± 0.13; and E58A, with -0.077 ± 0.086.
The result for E58R reads -0.117 ± 0.086; that for E58V, -0.105 ± 0.085; that for E58K, 0.102 ± 0.2.
Consider E33A, for which the abundance fitness worked out at 0.002 ± 0.056.
Then E33L, with -0.195 ± 0.059.
E33S: the abundance fitness was -0.045 ± 0.068.
Consider E33K, for which the abundance fitness turned out to be 0.037 ± 0.21.
The result for L54E reads -0.07 ± 0.056.
Then L54P, with -0.291 ± 0.063; and L54Q, with -0.088 ± 0.11.
The result for L54A reads -0.211 ± 0.057; that for L54D, -0.208 ± 0.14.
Regarding L54G, the abundance fitness worked out at 0.099 ± 0.053.
The result for L54Y reads -0.177 ± 0.12.
The result for L27E reads -0.311 ± 0.077; that for L27D, -0.464 ± 0.14; that for L27F, 0.077 ± 0.083.
Then L27M, with -0.025 ± 0.098.
With V55G, the abundance fitness was -0.829 ± 0.044.
The result for V55T reads -0.038 ± 0.055.
Then V55I, with -0.185 ± 0.054; and V55Q, with -0.391 ± 0.084.
The result for V55K reads -0.691 ± 0.087; that for S19F, -0.462 ± 0.19; that for S19R, -0.687 ± 0.074.
On to S19D, for which the abundance fitness is -0.059 ± 0.19.
For S19Q, the abundance fitness was -0.584 ± 0.09.
The result for S19L reads -0.532 ± 0.085; that for S19Y, -0.822 ± 0.28.
S19P: the abundance fitness was -0.43 ± 0.081.
S19V: the abundance fitness was -0.517 ± 0.061.
Then I18P, with -1.15 ± 0.22; and I18E, with -1.01 ± 0.17.
For the variant I18H, the abundance fitness was -0.917 ± 0.23.
Then I18D, with -0.965 ± 0.22; and I18A, with -0.736 ± 0.095.
On to I18K, for which the abundance fitness is -0.691 ± 0.17.
For I18L, the abundance fitness was 0.114 ± 0.054.
The result for I18N reads -1.01 ± 0.33; that for L31H, -0.021 ± 0.13.
The result for L31R reads -0.043 ± 0.091.
Then L31G, with 0.076 ± 0.048.
As for L31Y, the abundance fitness is -0.064 ± 0.18.
Then L31K, with 0.134 ± 0.095; and L31W, with -0.26 ± 0.16; and D41N, with -0.506 ± 0.48.
As to D41A, the abundance fitness is -0.151 ± 0.071.
For D41C, the abundance fitness was -0.059 ± 0.14.
The result for M63N reads 0.057 ± 0.21; that for M63W, -0.003 ± 0.078; that for M63Q, -0.035 ± 0.076.
For M63C, the abundance fitness was -0.058 ± 0.11.
On to M63V, for which the abundance fitness is 0.047 ± 0.081.
Then N13T, with -0.404 ± 0.095; and N13D, with -0.019 ± 0.11; and N13M, with -0.797 ± 0.093.
On to N13H, for which the abundance fitness was -0.644 ± 0.087.
Then N13C, with -0.489 ± 0.26; and N13E, with -0.459 ± 0.1.
The result for N13P reads -0.811 ± 0.093; that for N13V, -0.668 ± 0.071; that for N13K, -0.676 ± 0.13.
The result for E2W reads -0.344 ± 0.075; that for E2T, -0.093 ± 0.067.
Turning to E2R, the abundance fitness is -0.128 ± 0.058.
Then E2P, with -0.21 ± 0.076; and E2G, with -0.15 ± 0.096.
Then E2H, with -0.086 ± 0.13; and E2S, with -0.355 ± 0.13.
The result for E2V reads -0.357 ± 0.091.
Turning to E2K, the abundance fitness was -0.158 ± 0.1.
Then E59P, with -0.1 ± 0.13; and E59A, with -0.072 ± 0.064; and E59C, with 0.033 ± 0.072.
The result for E59H reads -0.164 ± 0.19; that for E59R, -0.089 ± 0.056.
Then A26G, with 0.05 ± 0.081.
As to A26M, the abundance fitness stood at 0.111 ± 0.11.
Then A26Y, with -0.17 ± 0.1; and A26E, with -0.86 ± 0.12.
The result for D56Q reads -0.153 ± 0.086; that for D56K, -0.103 ± 0.067; that for D56P, 0.009 ± 0.092.
Then D56I, with -0.12 ± 0.099.
With D56C, the abundance fitness is -0.321 ± 0.15.
D56N: the abundance fitness was -0.022 ± 0.16.
Then D56W, with -0.531 ± 0.089.
As for D5L, the abundance fitness was -0.32 ± 0.042.
As to D5E, the abundance fitness is -0.054 ± 0.056.
The result for D5M reads -0.171 ± 0.061; that for D5R, -0.119 ± 0.038; that for D5N, -0.034 ± 0.059.
As to D5G, the abundance fitness was -0.318 ± 0.05.
For the variant L30A, the abundance fitness was -0.255 ± 0.072.
On to L30K, for which the abundance fitness stood at 0.134 ± 0.083.
Then L30W, with -0.245 ± 0.055; and L30M, with -0.595 ± 0.35.
In the case of R17M, the abundance fitness was -0.099 ± 0.096.
The result for R17Y reads -0.02 ± 0.29; that for R17G, 0.045 ± 0.055.
The result for D52P reads -0.145 ± 0.09.
The result for D52H reads -0.049 ± 0.11; that for D52C, -0.124 ± 0.091.
As to D52A, the abundance fitness worked out at 0.009 ± 0.052.
For D52S, the abundance fitness is -0.133 ± 0.08.
Then D52Y, with -0.18 ± 0.072.
Turning to D52F, the abundance fitness was -0.414 ± 0.18.
The result for L44P reads -0.323 ± 0.17; that for L44G, -0.01 ± 0.071; that for L44R, -0.178 ± 0.09.
Turning to L44K, the abundance fitness turned out to be 0.055 ± 0.14.
The result for L44M reads -0.219 ± 0.21; that for L44H, 0.097 ± 0.3; that for G32M, -0.567 ± 0.12.
The result for G32N reads -0.246 ± 0.12; that for G32K, -0.206 ± 0.1.
Then G32D, with -0.29 ± 0.17; and E22T, with -0.486 ± 0.082; and E22D, with -0.49 ± 0.34.
Regarding E22Y, the abundance fitness was -0.814 ± 0.14.
Then E22P, with -1.05 ± 0.16; and E22M, with -0.535 ± 0.15; and E22Q, with -0.357 ± 0.1.
Then E22N, with -0.726 ± 0.35; and N50M, with -0.833 ± 0.2.
N50I: the abundance fitness is -0.488 ± 0.12.
Then N50P, with -0.2 ± 0.062; and N50F, with -0.346 ± 0.14; and N50T, with -0.022 ± 0.084.
Turning to N50K, the abundance fitness was 0.028 ± 0.068.
The result for N50E reads -0.19 ± 0.061; that for N50S, -0.092 ± 0.067; that for M64E, 0.301 ± 0.42.
Turning to M64T, the abundance fitness is 0.015 ± 0.12.
With M64P, the abundance fitness is -0.555 ± 0.37.
